Laboratory results published in patent US20250082681A1 (NANJING LEGEND BIOTECH, published 2025).

T1: recombinant human CLL1 extracellular domain, His-tagged (CLL1-His protein) (human, UniProt Q5QGZ9 65-265)
T1 construct: ECD made by transient expression in HEK293 (293-F) cells and purified by IMAC; also called recombinant human CLL1 protein; ECD of CLL1; not shown: His tag (protein called CLL1-His, purified by IMAC)
T1 sequence: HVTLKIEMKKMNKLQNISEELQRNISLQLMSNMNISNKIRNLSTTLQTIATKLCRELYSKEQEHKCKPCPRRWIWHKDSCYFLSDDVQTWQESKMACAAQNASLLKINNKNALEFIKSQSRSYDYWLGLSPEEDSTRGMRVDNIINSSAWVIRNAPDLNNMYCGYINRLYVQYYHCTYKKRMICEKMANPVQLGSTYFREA

B1: AS138658 (antibody, V domains shown)
VH: QVQLVQSGGSLRLSCAASGFTFSSYDMSWVRQAPGKGLEWVSTINSGGETTYYRDSVKGRFTISRDNAKNTLYLQLNSLKTEDTAMYYCAKGGGWEYYGMDYWGKGTLVTISS
VL: SYELTQPSAVSVSLGQTARITCQGGNLGSSYAYWYQQKPGQAPVLVIYADDSRPSGIPERFSGSSSGGTATLTISGAQAEDEADYYCQSYDSSSYDIVFGGGTHLTVL
notes: Called 'IgG1', from a camel phage library, expressed in IPTG-induced supernatant with a C-terminal His-tag; also called anti-CLL1 IgG1
B2: AS138943 (antibody, V domains shown)
VH: AVQLVESGGGLVQPGGSLRLSCTASGFNFGLYAMSWVRQAPGKGLEWVSGINGGGGLTYYPDSMKGRFTISRDVAKNTLYLELNSLKIEDTAMYYCAKDPDMWTAFPNALDAWGQGTLVTVSS
VL: SYELTQPSAVSVSLGETARITCQGGNIGINYANWYQQKPGQAPVLVIYGDDRRPSGIPERFSGSISGGTATLTISGAQAEDEADYYCQSADSSPYVVFGGGTHLTVL
notes: as for B1
B3: AS138993 (antibody, V domains shown)
VH: QVQLQESGGDLVQPGGSLRLSCAASGFTFSSYDMTWVRQAPGKGLEWVSTINSGGGVTYYTDSVKGRFTISRDNAKNTLYLQMNSLKPEDTAMYYCAADLSWYHALDAWGQGTLVTVSS
VL: SSELTQPAAVSVSLGETARITCQGGNFGSYYASWYQQKPGQAPVLVIHANDNRPSGIPERFSGSSSGGTVTLTISGAQAEDEADYYCQSYDSSANAVVFGGGTHLTVL
notes: as for B1
B4: AS141286 (antibody, V domains shown)
VH: QVQLVQSGGGLVQPGGSLRLSCAASRFPDGSYYMSWVRQGPGKGLEWVSSIYTGGDSTYYADSVKGRFTISKDNAKNALYLQMNSLKPEDTAVYYCAADPGGRYGPHEYNYWGQGTQVTVSS
VL: SSELTQPSAVSVSLGETARITCQGGNIGSNYANWYQQKPGQAPVLVIYGDDSRPSGIPERFSGSSSGGTATLTISGAQAEDEADYYCQSADSSGYNAVFGGGTHLTVL
notes: as for B1
B5: AS141297 (antibody, V domains shown)
VH: QVQLVQSGGGLVQPGGSLRLSCAASGFTFSSYGMIWVRQAPGKGLEWVSAANSGGGTTYYADSVKGRFTISRDNAKNTLYLQLNSLKTEDTAMYYCVKDLYIDGGTWSGLGLYLEVWGQGTLVTVSS
VL: SYELTQPSAVSVSLGETARITCQGGDFGTYYASWYQQKPGQAPVLVIYEDSERPSGIPERFSGSSSGGTATLTISGAQAEDEADYYCQSADSSVNVVFGGGTHLTVL
notes: as for B1
B6: AS141522 (antibody, V domains shown)
VH: QVQLVQSGGGLVQPGGSLRLSCAASGFTFGDYIMIWVRQAPGKGLEWVSAINSGGDSTYYADSVKGRFTISRDNAKNTLYLQLNSLKTQDTAIYYCAKDREAYYGSFYGGSGFDYWGQGTQVTISS
VL: SSELTQPSAVSVSLGETARITCQGGNVGSSYASWYQQKPGQAPVLVIYEDSERPSGIPERFSGSSSGGTATLTISRAQAEDEADYYCQSADRSGYNAVFGGGTHLTVL
notes: as for B1
B7: AS141553 (antibody, V domains shown)
VH: QVQLVESGGGLVQPGGSLRLSCAASGFTFSSVDMTWVRQAPGKGLEWVSTINTGSGSTYYADSVKGRFTISRDNAKNTLYLQMNSLKTEDTAVYYCATDLAGGGAWFTAPFHYWGQGTQVTISS
VL: SYELTQPSAVSVSLGETARITCQGGNVGYYYASWYQQKPGQAPVLVIYEDSERPSGIPERFSGSSSGGTATLTISGAQAEDEADYYCQSADSSGYNAAVFGGGTHLTVL
notes: as for B1
B8: AS141567 (antibody, V domains shown)
VH: QVQLVQSGGGLVQPGGSLRLSCAASGFTFSSYAMSWVRQAPGKGLEWVSAINSGDSSTYYVDSVKGRFTISRDNAKNTLYLQLNSLKTEDTAMYYCAKDRIPGPYSDGGGFLGIVFGYWGQGTQVTISS
VL: SSELTQPSAVSVSLGQTARITCQGGNFGKYYAHWYQQKPGQAPVLVIYEDSERPSGIPERFSGSSSGDTATLTISGAQAEDEGDYYCHSAESSAAVFGGGTHLTVL
notes: as for B1
B9: AS141641 (antibody, V domains shown)
VH: AVQLVESGGGLVQPGGSLRLSCAASGFTFSGYPMSWVRQAPGKALEWVSTINNGGGSTYYADSVKGRFTISRDNAKNTLYLQLNSLKTEDTAMYYCAKRHIPSSYCSDGYCYAAGEDYGMDYWGKGTLVTISS
VL: SSELTQPSAVSVSLGETARITCQGGNVGSSYASWYQQKPGQAPVLVIYEDSERPSGIPERFSGSSSGGTATLTISGAQAEDEADYYCQSADSSGYNAVFGGGTHLTVL
notes: as for B1
B10: AS141701 (antibody, V domains shown)
VH: QVQLVQSGGGLVQPGGSLRLSCAASGFTFSVYAMSWVRQAPGKGLEWVSAIKAANSDGDNTYYVDSVKGRFTISRDNAKNTLYLQLNSLKTEDTAIYYCAKAMYECSSGSWCPLGDALDAWGQGTLVTVSS
VL: SSELTQPSAVSVSLGETARITCQGGNVRSSYVSWYQQKPGQAPVLVIYEDSERPSGIPERFSGSSSGGTATLTISGAQAEDEADYYCQSGDNSAYSAAVFGGGTHLTVL
notes: as for B1
B11: AS141819 (antibody, V domains shown)
VH: EVQLVQSGGGLVQPGGSLRLSCATSGFTFSNNWMHWVRQAPGKGLEWVSSINTGDGSTSSADSVKGRFTISRDNTKNILYLQMNSLKSEDTALYYCAKELDYELGKGPHEYNYWGQGTQVTVSS
VL: SYELTQPSAVSVSLGETARITCQGGNIGSNYANWYQQKPDQAPVLVIYGDDSRPSGIPERFSGSSSGGTATLTISGAQAEDETDYYCQSADSSGYKAVFGGGTHLTVL
notes: as for B1
B12: AS138628 (antibody, V domains shown)
VH: QVQLVQSGGGLVQPGGSLRLSCASSGFTFSSYTMSWVRQAPGKGLEWVSGFNSYGSTYYADSVKGRFTISRDNAKNTLYLQLNSLKTEDTAMYYCARGLVDFDYWGQGTQVTVSS
VL: QSVLTQPSSVSGTPGQTVTISCTGTSNDVGGYNYVSWYQQLPGTAPKLLIYQVNKRASGIPDRFSGSKSGNTASMTISGLQSADEADYYCASYRSTGNAVFGGGTHLTVL
notes: as for B1
B13: AS141330 (antibody, V domains shown)
VH: QVKLEQPGGSLRLSCAASGFTFSDYDMTWVRQAPGKGLEWISTITGGGESTYYRDSVKGRATISRDNAKNTLYLQLNSLKTEDTAMYYCARGGGWEYYGMNYWGKGTLVTISS
VL: SSELTQPSAVSVSLGETARITCQGGKVGSNYASWYQQKPGQAPVLVIYGDDSRPSGIPERFSGSSSGGTATLTISGAQAEDEADYYCQSYDSSGYNAVFGGGTHLTVL
notes: as for B1

Legend:
[1] = biological target: T1, recombinant human CLL1 extracellular …; assay: SPR (BIACORE T200), IgG1 on recombinant human CLL1; column KD, unit inferred
Description: (§1) The unique clones were grown in 2YT medium and induced by IPTG for IgG1 expression in the supernatant. The supernatants of unique binders were analyzed for their ability to bind to a CLL1-expressing HEK293/huCLL1 cell line and cancer cell line AMLL193 using a FACS assay. Affinities of selected binders in supernatants to recombinant human and cynomolgus monkey CLL1 proteins were determined by surface plasmon resonance (SPR) on a BIACORE® T200 instrument. The dissociation phase was used to calculate the kd values for each IgG1.

[2] = biological target: T1, recombinant human CLL1 extracellular …; assay: SPR (BIACORE T200), supernatants on recombinant human CLL1
Description: as §1

Row | Binder | Kd [1] | binding result [2]
1 | B1 | 21 nM | –
2 | B2 | 39 nM | –
3 | B3 | 13 nM | –
4 | B4 | 1.2 nM | –
5 | B5 | 0.54 nM | –
6 | B6 | 0.37 nM | –
7 | B7 | 3.5 nM | –
8 | B8 | 2.3 nM | –
9 | B9 | 0.28 nM | –
10 | B10 | 2.8 nM | –
11 | B11 | 11 nM | –
12 | B12 | 43 nM | –
13 | B13 | – | binds
